# Laboratory results taken from publication PMC10965072.
# Target: TF-mCCP1 (maize (inbred line B73))
# Sequence (Q10716 137-371): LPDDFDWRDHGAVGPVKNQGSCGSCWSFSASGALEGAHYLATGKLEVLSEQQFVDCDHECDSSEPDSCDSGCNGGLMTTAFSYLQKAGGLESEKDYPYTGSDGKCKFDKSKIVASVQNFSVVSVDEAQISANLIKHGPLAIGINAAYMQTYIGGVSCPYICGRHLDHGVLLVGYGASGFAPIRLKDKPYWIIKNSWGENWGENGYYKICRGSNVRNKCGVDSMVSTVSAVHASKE
substance,measurement,value
GST-NIa-Pro (enzyme),"proteolytic activity of recombinant mCCP1 (TF tag removed) on a fluorescein-labeled casein substrate after pre-treatment with 0.5 μM GST-NIa-Pro, against GST",72 % decrease
